# From the supplement of paper PMC10567573
# B1: DUSP5 (parent)
# chain: YSEYPECCVDVKPISQEKIESERA
# B2: NP_009172.2 (parent)
# chain: LPALFTDLYSQEITAEEAREALP
# Variants of: B1
# Experiment: protein stability index of a GFP-peptide fusion (GPS, HEK-293T) (PSI 1-6); higher = more stable
# Conditions: c terminus: a fixed tail appended
row,Variant,protein stability index
1,A24V,3.89
2,A24Q,4.18
3,A24P,3.88
4,A24Y,3
5,A24W,3.44

# Variants of: B2
# Experiment: as above
# Conditions: c terminus: native
row,Variant,protein stability index
1,P2W,2.66
2,P2R,2.28
3,P2M,2.79
4,P2L,2.48
5,P2F,2.54
6,P2H,2.52
7,P2Q,2.69
8,P2D,3.64
9,P2A,2.69
10,P2C,2.64
11,P2G,3.03
12,P2K,2.5
13,P2T,2.51
14,P2S,2.71
15,P2Y,2.85
16,P2E,3.51
17,P2I,2.37
18,P2V,2.46
19,P2N,2.59
20,L4G,2.69
21,L4P,4.94
22,L4D,4.87
23,L4K,2.77
24,L4F,2.99
25,L4W,3.98
26,L4E,5.24

row,Variant,protein stability index
1,L4S,2.55
2,L4I,4.64
3,L4H,3.54
4,L4N,2.76
5,L4T,2.27
6,L4M,3.19
7,L4C,2.64
8,L4V,4.59
9,L4Q,3.62
10,L4A,3.64
11,L4Y,3.47
12,L4R,2.21
13,I13G,3.81
14,I13Q,2.98
15,I13V,2.46
16,I13H,2.71
17,I13C,2.57
18,I13W,2.15
19,I13Y,2.69
20,I13R,2.1
21,I13A,2.97
22,I13M,2.53
23,I13D,3.25
24,I13P,3.87
25,I13N,3.46
26,I13T,3.09

row,Variant,protein stability index
1,I13L,2.71
2,I13K,2.66
3,I13E,3.25
4,I13F,2.69
5,I13S,3.26
6,T14S,2.67
7,T14I,2.25
8,T14W,2.62
9,T14N,2.76
10,T14C,2.48
11,T14M,2.45
12,T14F,2.48
13,T14V,2.51
14,T14G,2.73
15,T14H,2.46
16,T14Q,2.27
17,T14K,2.34
18,T14D,2.55
19,T14Y,2.56
20,T14L,2.48
21,T14E,2.66
22,T14P,3.48
23,T14R,2.44
24,T14A,2.21
25,Q11H,2.76
26,Q11W,2.63

row,Variant,protein stability index
1,Q11F,2.52
2,Q11A,2.7
3,Q11P,3.82
4,Q11E,2.88
5,Q11K,2.4
6,Q11D,3.31
7,Q11T,3.21
8,Q11N,2.92
9,Q11L,2.65
10,Q11C,2.95
11,Q11Y,2.67
12,Q11V,2.79
13,Q11S,3.04
14,Q11R,2.26
15,Q11I,2.52
16,Q11G,3.59
17,Q11M,2.54
18,T6R,3.15
19,T6H,4.28
20,T6I,2.7
21,T6K,3.32
22,T6C,3.02
23,T6L,3.54
24,T6F,4.22
25,T6W,4.06
26,T6S,2.55

row,Variant,protein stability index
1,T6Q,2.18
2,T6M,3.69
3,T6V,2.24
4,T6P,5.24
5,T6Y,4.5
6,T6G,4.09
7,T6N,4.77
8,T6E,3.68
9,T6A,2.34
10,T6D,5.37
11,D7C,3.44
12,D7G,4.02
13,D7K,3.33
14,D7R,2.77
15,D7Q,2.63
16,D7H,3.13
17,D7Y,2.56
18,D7T,2.57
19,D7N,3.52
20,D7F,2.6
21,D7A,2.88
22,D7W,2.48
23,D7S,3.08
24,D7M,2.71
25,D7E,2.46
26,D7P,4.4

row,Variant,protein stability index
1,D7L,2.61
2,D7I,2.49
3,D7V,2.58
4,F5G,5.28
5,F5T,5.25
6,F5W,2.25
7,F5Y,3.72
8,F5V,5.07
9,F5C,5.41
10,F5N,5.52
11,F5K,5.25
12,F5D,5.58
13,F5L,5.16
14,F5Q,5.24
15,F5S,5.37
16,F5P,5.3
17,F5E,5.38
18,F5I,5.08
19,F5A,5.41
20,F5R,5.42
21,F5M,5.24
22,A18F,2.73
23,A18H,2.42
24,A18G,2.95
25,A18E,2.83
26,A18C,2.91

row,Variant,protein stability index
1,A18I,2.57
2,A18K,2.26
3,A18D,3.24
4,E17Y,2.32
5,E17R,1.87
6,E17P,2.73
7,E17T,2.3
8,E17S,2.33
9,E17G,2.21
10,E17F,2.38
11,E17H,2.2
12,E17M,2.22
13,E17A,2.39
14,E17W,2.4
15,E17I,2.4
16,E17V,2.43
17,E17Q,2.83
18,E17L,2.16
19,E17C,2.24
20,E17D,2.71
21,E17K,2.18
22,E17N,2.5
23,L8T,3.69
24,L8P,5.43
25,L8M,2.24
26,L8V,2.81

row,Variant,protein stability index
1,L8R,2.22
2,L8W,3.27
3,L8A,3.14
4,L8E,4.59
5,L8D,5.11
6,L8G,5.28
7,L8N,3.46
8,L8Y,2.53
9,L8H,2.56
10,L8Q,2.91
11,L8C,3.77
12,L8K,2.39
13,L8F,3.05
14,L8I,2.59
15,L8S,4.05
16,Y9P,5.13
17,Y9A,2.34
18,Y9M,3.13
19,Y9W,2.65
20,Y9H,4.49
21,Y9T,2.74
22,Y9C,2.42
23,Y9D,5.38
24,Y9I,1.88
25,Y9F,2.81
26,Y9E,5.17

row,Variant,protein stability index
1,Y9K,5.39
2,Y9G,5.3
3,Y9N,5.01
4,Y9S,3.98
5,Y9R,5.15
6,Y9V,2.21
7,Y9L,2.39
8,Y9Q,5.15
9,A15H,2.6
10,A15V,2.78
11,A15E,2.55
12,A15P,3.05
13,A15L,2.53
14,A15Q,2.84
15,A15W,2.68
16,A15I,2.76
17,A15C,3
18,A15S,2.67
19,A15T,3.05
20,A15M,2.51
21,A15K,2.56
22,A15G,2.83
23,A15R,2.36
24,A15F,2.53
25,A15N,2.66
26,A15Y,2.72

row,Variant,protein stability index
1,L1P,2.49
2,L1E,2.96
3,L1K,1.72
4,L1W,2.68
5,L1Y,2.5
6,L1R,2.22
7,L1C,2.5
8,L1D,3.9
9,L1S,2.32
10,L1A,2.95
11,L1V,2.59
12,L1F,2.59
13,L1I,2.63
14,L1Q,2.5
15,L1H,2.6
16,L1N,2.86
17,L1G,2.77
18,L1T,2.4
19,L1M,2.91
20,E16L,2.73
21,E16G,2.9
22,E16P,3.16
23,E16A,2.76
24,E16Q,2.64
25,E16T,2.62
26,E16H,2.75

row,Variant,protein stability index
1,E16S,2.86
2,E16F,2.89
3,E16W,2.48
4,E16C,2.51
5,E16N,2.81
6,E16D,2.75
7,E16I,2.99
8,E16Y,2.51
9,E16K,2.97
10,E16R,2.68
11,E16V,2.48
12,E16M,2.58
13,S10Q,2.57
14,S10R,2.71
15,S10G,3.08
16,S10F,2.57
17,S10E,2.48
18,S10H,2.85
19,S10Y,2.36
20,S10K,2.48
21,S10A,2.52
22,S10M,2.26
23,S10N,2.61
24,S10W,2.26
25,S10C,2.16
26,S10V,2.35

row,Variant,protein stability index
1,S10L,2.3
2,S10T,2.38
3,S10I,1.95
4,S10D,2.8
5,S10P,3.79
6,E12I,3.15
7,E12H,3.39
8,E12N,3.79
9,E12Y,3.07
10,E12W,2.21
11,E12R,2.59
12,E12D,2.99
13,E12L,3.04
14,E12K,2.92
15,E12T,3.03
16,E12S,3.13
17,E12Q,2.69
18,E12C,3.19
19,E12A,3.56
20,E12F,3.01
21,E12V,3.38
22,E12M,2.93
23,E12P,3.77
24,E12G,3.78
25,A3W,2.42
26,A3D,4.1

row,Variant,protein stability index
1,A3P,2.62
2,A3F,2.76
3,A3I,2.43
4,A3Y,2.62
5,A3L,2.56
6,A3H,2.81
7,A3R,2.43
8,A3N,2.96
9,A3E,3.66
10,A3K,2.1
11,A3S,2.74
12,A3V,2.49
13,A3G,2.68
14,A3T,2.56
15,A3Q,2.22
16,A3C,2.64
17,A3M,2.47
